Measurements: the supplement of paper PMC10567573
± gives the standard deviation.

Assay: protein stability index of a GFP-peptide fusion (GPS, HEK-293T) (PSI 1-6); higher = more stable
Conditions: c terminus: a fixed tail appended
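Further: 24-mer peptide tiles fused after GFP, lentivirally expressed, FACS-sorted into six equal bins by GFP/DsRed ratio, decoded by Illumina sequencing, PSI is the read-weighted mean bin number.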

Sequence | protein stability index (treatment: DMSO) | protein stability index (treatment: MLN4924 1 uM, 8 h)
ILEDMRCQYEALVENNRRDVEAWF [KRT36] | 2.49 ± 0.19 | 2.84 ± 0.45
ILENSSQKENVFKCDSLKEECIPE [FAN1] | 4.68 ± 0.37 | 4.95 ± 0.09
ILRAIGKGSFGKVCIVQKNDTKKM [STK32A] | 2.4 ± 0.45 | 2.56 ± 0.22
ILVMKHNYSQDAADACDIDEIEEV [NETO1] | 4.11 ± 0.16 | 4.18 ± 0.28
IMNIIDIVSILPYFITLGTDLAQQ [KCNA4] | 3.37 ± 0.44 | 2.95 ± 0.49
INQPLPDLKNVKSKIGSTDNIKYQ [MAP2] | 4.29 ± 0.17 | 4.47 ± 0.16
INRCSVLRQLGCKDGKNWNSNQAT [SPOPL] | 2.65 ± 0.28 | 2.78 ± 0.28
INTLITSGADTAKCGIHSMFPLHL [ANKRD44] | 1.8 ± 0.21 | 2.64 ± 0.84
INYLGAESLRPLVQTPPGGSEVVP [IKZF1] | 4.07 ± 0.2 | 3.88 ± 0.28
IPNAASEEGDEDDWASNKVMFKIG [WEE1] | 4.62 ± 0.13 | 4.28 ± 0.3
IQDVVQPLTLQVQRPLVSVTVSDA [AUP1] | 3.56 ± 0.28 | 3.58 ± 0.22
IQGYRVYYTMDPTQHVNNWMKHNV [PTPRD] | 2.55 ± 0.25 | 2.44 ± 0.47
IQQLLEPQQYMAFLPHHIMVKIFR [FBXO34] | 2.13 ± 0.31 | 2.53 ± 0.29
ISENRKRQWPTKSQTDRGASAGKR [SDE2] | 4.7 ± 0.28 | 4.94 ± 0.073
ISVQELMGCLGVAKEDGKADTKKR [SMOC2] | 3.88 ± 0.33 | 3.92 ± 0.59
ITAGGENVPPIPVETLVKKKIPII [ACSBG2] | 3.71 ± 0.32 | 3.96 ± 0.34
ITFSGRPSRVHASEVESAVWYVKK [FBXO39] | 2.41 ± 0.21 | 2.68 ± 0.32
IVNQWSEKFSDEGDSDSALDSVSP [DLC1] | 5.32 ± 0.18 | 5.24 ± 0.23
IYGRSQNPVQPIGPQTPKACDSKL [MMP1] | 4.15 ± 0.17 | 4.08 ± 0.12
IYRHRIPSTICFGQGAARGFKSNK [ZNF511] | 3 ± 0.37 | 3.64 ± 0.13
KAFWKEDNALWERDRNLLQEDKAL [CCDC70] | 4.16 ± 0.081 | 4.24 ± 0.18
KAKFCSTVANDVMLRTGLGVIRMW [NETO1] | 2.7 ± 0.51 | 2.27 ± 0.29

Sequence | protein stability index (treatment: DMSO) | protein stability index (treatment: MLN4924 1 uM, 8 h)
KAMFSGRVEVLTDAGGWVLIDRSG [KCTD13] | 2.19 ± 0.21 | 2.48 ± 0.47
KARSNSTLSKSEYMVIEEGGMNHS [KCNA3] | 4.57 ± 0.38 | 4.33 ± 0.15
KCCGMRNTDVSMENMVTVGFFSCM [KCNK9] | 2.59 ± 0.48 | 2.51 ± 0.44
KDRECQSQSLALKEQNNLKQLEFG [ZNF8] | 4.56 ± 0.3 | 4.78 ± 0.63
KEDNSLLNQGFLQAKPEKAAVAQK [MYBL2] | 5.26 ± 0.12 | 5.14 ± 0.56
KEEKEDEISLEDLIERERSALGPN [ZC3H15] | 5.31 ± 0.35 | 5.26 ± 0.37
KEHWTPEGHSIVGFAMYYFTYDPW [SAT1] | 3.05 ± 0.44 | 3.1 ± 0.43
KEIDDVIDEIISLESSYNDEMLSY [TFE3] | 3.27 ± 0.26 | 3.5 ± 0.3
KETEFLRLKRTRLGLDDFESLKVI [STK38L] | 2.44 ± 0.16 | 2.56 ± 0.34
KFSHSGRYMLTRDYLTVKVWDLNM [PPP2R2C] | 2.35 ± 0.23 | 2.33 ± 0.31
KIANLGSCNDSKLEFRSFWELIGE [S100A14] | 1.91 ± 0.33 | 2.11 ± 0.38
KIGVGAMTWSPLACGIVSGKYDSG [KCNAB2] | 2.81 ± 0.27 | 2.85 ± 0.61
KIIICSQNEEYLLTYINEDRISTT [PLK2] | 2.02 ± 0.35 | 2.06 ± 0.36
KIRRFNKAKPEPDILEEEKIYAYP [TMEM192] | 3.27 ± 0.35 | 3.54 ± 0.52
KKDNHALVRETDELRRNHCFQDFK [ELOA2] | 4.11 ± 0.31 | 4.03 ± 0.3
KKQDENEGIKVEDLLFIVDTMLEE [CEP70] | 3.25 ± 0.22 | 3.27 ± 0.23
KKQLADETLLKVDLENRCQSLTED [LMNB1] | 5.13 ± 0.23 | 5.31 ± 0.076
KKYVKGDVSLCRWHPKPYCQALPY [FBXO34] | 2.31 ± 0.45 | 2.05 ± 0.28
KLDKKLKKMEQNKTAATRYRQKKR [ATF4] | 4.48 ± 0.16 | 4.42 ± 0.23
KLGAPLSGLQGLPECTRCGHGIVG [PDLIM4] | 2.65 ± 0.25 | 2.75 ± 0.36
KLREFLRVEEQAILDAMAEETRQK [TRIM35] | 2.85 ± 0.53 | 3.34 ± 0.18
KLRFNRKKKGMYRKAITEAANAAR [PWWP2B] | 3.42 ± 0.23 | 3.29 ± 0.2

Sequence | protein stability index (treatment: DMSO) | protein stability index (treatment: MLN4924 1 uM, 8 h)
KMKYKGQYRPSDLLCPETYVWVPI [ATE1] | 2.01 ± 0.39 | 2.03 ± 0.26
KNIIHKTSGKRYVYRFVCDLQNLL [ETS2] | 2.96 ± 0.48 | 2.69 ± 0.6
KNTSEQDQPMGGWEMIRKIGDTSV [LMNB1] | 4.27 ± 0.18 | 4.43 ± 0.22
KNTTYDLIANIVHDGKPSEGSYRI [USP39] | 2.62 ± 0.4 | 2.52 ± 0.32
KPGPQDTVERPFYDLWASDNPLDR [NOP53] | 4.45 ± 0.43 | 4.38 ± 0.16
KPTVFIGVPQIWEKIHEMVKKNSA [ACSBG2] | 2.75 ± 0.34 | 2.47 ± 0.81
KQECLITTFQDVYFVSESFEDAKE [TPH1] | 4.08 ± 0.73 | 4.45 ± 0.36
KQMSFLEKRGCPRTALEYCKLILS [TCF25] | 3.12 ± 1 | 3.02 ± 0.2
KQQREKTRWLNSGRGDEASEEGQN [ADD1] | 5.54 ± 0.16 | 5.48 ± 0.26
KQWGPLEREPVRGQCLDSTDQLEF [RTN2] | 4.45 ± 0.35 | 4.71 ± 0.2
KRAFKIKDFANTIPGHGGIMDRFD [CDS2] | 2.77 ± 0.27 | 2.91 ± 0.42
KRGGNCPAPAPLVPQDPDLEEEEE [ZBTB22] | 5.56 ± 0.26 | 5.59 ± 0.21
KRKGIKSSIGRLFGKKEKGRLIQL [PPFIA4] | 2.46 ± 0.31 | 2.22 ± 0.22
KRKSEVERAVKRMRHLSTGTMTGL [MATN2] | 3.31 ± 0.088 | 3.12 ± 0.65
KSGEEAVTVLEDLEKGLEPEPQVP [ZNF232] | 5.63 ± 0.17 | 5.62 ± 0.16
KSKAELQSEERKRIDELIESGKEE [KMT5A] | 5.59 ± 0.25 | 5.67 ± 0.21
KSKSITNLAAAAADIPQDQLVVMH [BTBD10] | 4.43 ± 0.34 | 4.64 ± 0.4
KSPPQLRQFLPEEFMKTLEKTGPQ [DENND6A] | 4.63 ± 0.3 | 4.43 ± 0.32
KSYIFEGALGMSNRDSYFYAAIVA [VMA21] | 2.96 ± 0.66 | 2.6 ± 0.46
KTEQQRRREKAVHRLRVQQAALRA [NOP53] | 3.98 ± 0.42 | 4.13 ± 0.18
KVKWTHEEDEQLRALVRQFGQQDW [MYBL2] | 3.19 ± 0.44 | 3.44 ± 0.12
